# Data reported in patent publication US20180155451A1 (published 2018).
# T1: FcγRIIb (human, UniProt P31994 43-217)
# T1 construct: extracellular domain; Soluble extracellular domain with C-terminal His tag, expressed in FreeStyle293 cells; also called FcgRIIb; 2b; not shown: C-terminal His tag
# T1 sequence (looked up): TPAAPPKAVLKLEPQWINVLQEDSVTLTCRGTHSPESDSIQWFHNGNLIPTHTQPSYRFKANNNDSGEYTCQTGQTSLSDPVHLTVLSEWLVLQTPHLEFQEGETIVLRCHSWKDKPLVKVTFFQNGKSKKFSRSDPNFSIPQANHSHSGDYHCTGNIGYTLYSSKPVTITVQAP
# T2: FcγRIIa H (human, UniProt P12318 34-217)
# T2 construct: extracellular domain; Soluble extracellular domain with C-terminal His tag, expressed in FreeStyle293 cells; also called FcgRIIa H; 2aH; not shown: C-terminal His tag
# T2 sequence (looked up): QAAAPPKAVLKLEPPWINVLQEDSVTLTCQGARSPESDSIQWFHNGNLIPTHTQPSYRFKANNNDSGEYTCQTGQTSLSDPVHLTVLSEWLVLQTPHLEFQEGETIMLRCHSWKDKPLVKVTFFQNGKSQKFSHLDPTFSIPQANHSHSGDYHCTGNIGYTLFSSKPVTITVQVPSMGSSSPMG
# B1: GpH7-A5/GpH7-B3 variant P238_18N/GpL16-k0 (antibody, human IgG1, kappa)
# heavy 1: not shown
# heavy 2: not shown
# light: DIVMTQSPLSLPVTPGEPASISCQASESLVHSNRNTYLHWYLQKPGQSPQLLIYKVSNRFSGVPDRFSGSGSGTDFTLKISRVEAEDVGVYYCSQNTHVPPTFGQGTKVEIERTVAAPSVFIFPPSDEQLKSGTASVVCLLNNFYPREAKVQWKVDNALQSGNSQESVTEQDSKDSTYSLSSTLTLSKADYEKHKVYACEVTHQGLSSPVTKSFNRGEC
# notes: Heterodimerized anti-glypican-3 IgG1; alteration in the GpH7-B3 chain only; also called He Ab
# B2: GpH7-A5/GpH7-B3 variant G237_18N/GpL16-k0 (antibody, human IgG1, kappa)
# heavy 1: not shown
# heavy 2: not shown
# light: B1 light
# notes: as for B1
# B3: GpH7-A5/GpH7-B3 variant S239_01G/GpL16-k0 (antibody, human IgG1, kappa)
# heavy 1: not shown
# heavy 2: not shown
# light: B1 light
# notes: as for B1
# B4: GpH7-A5/GpH7-B3 variant P238_09D/GpL16-k0 (antibody, human IgG1, kappa)
# heavy 1: not shown
# heavy 2: not shown
# light: B1 light
# notes: as for B1
# B5: GpH7-A5/GpH7-B3 variant L235_20W/GpL16-k0 (antibody, human IgG1, kappa)
# heavy 1: not shown
# heavy 2: not shown
# light: B1 light
# notes: as for B1
# B6: GpH7-A5/GpH7-B3 variant S267_03V/GpL16-k0 (antibody, human IgG1, kappa)
# heavy 1: not shown
# heavy 2: not shown
# light: B1 light
# notes: as for B1
# B7: GpH7-A5/GpH7-B3 variant P238_01G/GpL16-k0 (antibody, human IgG1, kappa)
# heavy 1: not shown
# heavy 2: not shown
# light: B1 light
# notes: as for B1
# B8: GpH7-A5/GpH7-B3 variant P238_08L/GpL16-k0 (antibody, human IgG1, kappa)
# heavy 1: not shown
# heavy 2: not shown
# light: B1 light
# notes: as for B1
# B9: GpH7-A5/GpH7-B3 variant P238_16H/GpL16-k0 (antibody, human IgG1, kappa)
# heavy 1: not shown
# heavy 2: not shown
# light: B1 light
# notes: as for B1
# B10: GpH7-A5/GpH7-B3 variant S239_07I/GpL16-k0 (antibody, human IgG1, kappa)
# heavy 1: not shown
# heavy 2: not shown
# light: B1 light
# notes: as for B1
# B11: GpH7-A5/GpH7-B3 variant G237_20W/GpL16-k0 (antibody, human IgG1, kappa)
# heavy 1: not shown
# heavy 2: not shown
# light: B1 light
# notes: as for B1
# B12: GpH7-A5/GpH7-B3 variant P238_10E/GpL16-k0 (antibody, human IgG1, kappa)
# heavy 1: not shown
# heavy 2: not shown
# light: B1 light
# notes: as for B1
# B13: GpH7-A5/GpH7-B3 variant L235_09D/GpL16-k0 (antibody, human IgG1, kappa)
# heavy 1: not shown
# heavy 2: not shown
# light: B1 light
# notes: as for B1
# B14: GpH7-A5/GpH7-B3 variant S239_06M/GpL16-k0 (antibody, human IgG1, kappa)
# heavy 1: not shown
# heavy 2: not shown
# light: B1 light
# notes: as for B1
# B15: GpH7-A5/GpH7-B3 variant P238_07I/GpL16-k0 (antibody, human IgG1, kappa)
# heavy 1: not shown
# heavy 2: not shown
# light: B1 light
# notes: as for B1
# B16: GpH7-A5/GpH7-B3 variant S267_07I/GpL16-k0 (antibody, human IgG1, kappa)
# heavy 1: not shown
# heavy 2: not shown
# light: B1 light
# notes: as for B1
# B17: GpH7-A5/GpH7-B3 variant S267_01G/GpL16-k0 (antibody, human IgG1, kappa)
# heavy 1: not shown
# heavy 2: not shown
# light: B1 light
# notes: as for B1
# B18: GpH7-A5/GpH7-B3 variant L234_10E/GpL16-k0 (antibody, human IgG1, kappa)
# heavy 1: not shown
# heavy 2: not shown
# light: B1 light
# notes: as for B1
# Target: T1, FcγRIIb
# Test: SPR (Biacore), antibody captured, FcγR as analyte; relative to HeCon Ab
# Procedure: (§1) The heterodimerized antibodies He Abs in which one of the H chains was introduced with an alteration were assayed for their binding activities to each activating FcγR and inhibitory FcγR according to the method described in Example 4. […] The activating FcγRs in FIGS. 26, 27, 28, and 29 are FcγRIa, FcγRIIa (R), FcγRIIa (H), and FcγRIIIa, respectively.
# (§2) Analysis of interaction between objective antibody and the FcγR was carried out using Biacore T100 (GE Healthcare). HBS-EP+ (GE Healthcare) was used as the running buffer, and the measurement temperature was set to 25° C. Chips produced by immobilizing the antigen peptide by the amine coupling method to a Series S Sencor Chip CM5 (GE Healthcare), or alternatively, chips produced by allowing preliminarily biotinylated antigen peptides to interact with and immobilize onto a Series S Sensor Chip SA (certified) (GE Healthcare) were used. Antibodies of interest were captured onto an antigen peptide-immobilized chip, and allowed to interact to each FcγR diluted with running buffer. To regenerate and repeatedly use the chip, the antibodies captured on the chip were washed off by reacting 10 mM glycine-HCl, pH 1.5.
row,He/Con_2b,Binder
1,73.2 % of GpH7-A5/GpH7-B3/GpL16-k0 (=100),B1
2,180 % of GpH7-A5/GpH7-B3/GpL16-k0 (=100),B2
3,144 % of GpH7-A5/GpH7-B3/GpL16-k0 (=100),B3
4,221 % of GpH7-A5/GpH7-B3/GpL16-k0 (=100),B4
5,147 % of GpH7-A5/GpH7-B3/GpL16-k0 (=100),B5
6,192 % of GpH7-A5/GpH7-B3/GpL16-k0 (=100),B6
7,56 % of GpH7-A5/GpH7-B3/GpL16-k0 (=100),B7
8,204 % of GpH7-A5/GpH7-B3/GpL16-k0 (=100),B8
9,115 % of GpH7-A5/GpH7-B3/GpL16-k0 (=100),B9
10,107 % of GpH7-A5/GpH7-B3/GpL16-k0 (=100),B10
11,193 % of GpH7-A5/GpH7-B3/GpL16-k0 (=100),B11
12,232 % of GpH7-A5/GpH7-B3/GpL16-k0 (=100),B12
13,106 % of GpH7-A5/GpH7-B3/GpL16-k0 (=100),B13
14,101 % of GpH7-A5/GpH7-B3/GpL16-k0 (=100),B14
15,80 % of GpH7-A5/GpH7-B3/GpL16-k0 (=100),B15
16,192 % of GpH7-A5/GpH7-B3/GpL16-k0 (=100),B16
17,105 % of GpH7-A5/GpH7-B3/GpL16-k0 (=100),B17
18,118 % of GpH7-A5/GpH7-B3/GpL16-k0 (=100),B18

# Target: T2, FcγRIIa H
# Test: as above
# Procedure: as §1, §2
row,He/Con_2aH,Binder
1,53.5 % of GpH7-A5/GpH7-B3/GpL16-k0 (=100),B1
2,15.2 % of GpH7-A5/GpH7-B3/GpL16-k0 (=100),B2
3,97 % of GpH7-A5/GpH7-B3/GpL16-k0 (=100),B3
4,87.5 % of GpH7-A5/GpH7-B3/GpL16-k0 (=100),B4
5,118 % of GpH7-A5/GpH7-B3/GpL16-k0 (=100),B5
6,50.8 % of GpH7-A5/GpH7-B3/GpL16-k0 (=100),B6
7,37.3 % of GpH7-A5/GpH7-B3/GpL16-k0 (=100),B7
8,84.6 % of GpH7-A5/GpH7-B3/GpL16-k0 (=100),B8
9,45.9 % of GpH7-A5/GpH7-B3/GpL16-k0 (=100),B9
10,91.5 % of GpH7-A5/GpH7-B3/GpL16-k0 (=100),B10
11,31.6 % of GpH7-A5/GpH7-B3/GpL16-k0 (=100),B11
12,77.1 % of GpH7-A5/GpH7-B3/GpL16-k0 (=100),B12
13,75.8 % of GpH7-A5/GpH7-B3/GpL16-k0 (=100),B13
14,98.6 % of GpH7-A5/GpH7-B3/GpL16-k0 (=100),B14
15,57.6 % of GpH7-A5/GpH7-B3/GpL16-k0 (=100),B15
16,34.7 % of GpH7-A5/GpH7-B3/GpL16-k0 (=100),B16
17,71.3 % of GpH7-A5/GpH7-B3/GpL16-k0 (=100),B17
18,88.3 % of GpH7-A5/GpH7-B3/GpL16-k0 (=100),B18
